{"source": "patent US20230365699A1", "about": "(published 2023)", "binders": {"B1": {"name": "BCMA-18 scFv (scFv)", "scFv": "EVQLLESGGGLVQPGGSLRLSCAASGFTFSSYWMSWHRQAPGKGPEWVAHINQDGSEKYYVDSVKGRFTISRDNAESSLYLQMNSLRAEDTAVYYCARWLAVTNWGQGTLVTVSSGGGGSGGGGSGGGGSQSVLTQPPSASGTPGQRVTISCSGSGSNIGSNDVSWYQQIPGTAPKLLIYWNDQRPSGVPDRFSGSKSGTSASLAISGLRSEDEADYYCAAWDDSLNGWVFGGGTKLTVL"}, "B2": {"name": "BCMA-20 scFv (scFv)", "scFv": "EVQLLESGGGLVQPGRSLRLSCAASGFTFDDYAMHWVRQAPGKGLEWVSGISWNSGSIGYADSVKGRFTISRDNAKNSLYLQMNSLRAEDTALYYCAKGGLGITPYYFDYWGQGTLVTVSSGGGGSGGGGSGGGGSQPVLTQPPSASGTPGQRVTISCSGGKTVNWFRQVPGTAPQLLIYSNDQRPSGVPDRFSGSKSGSSASLDISGLQSEDEAYYYCGSWDDSLNAWVFGGETKLTVL"}, "B3": {"name": "BCMA-21 scFv (scFv)", "scFv": "EVQLVESGGGLVKPGGSLKLSCAASGFTFSDYYMSWIRQAPGKGLEWVSYISSSGSTIYYADSVKGRFTISRDNAKNSLYLQMNSLRAEDTAVYYCAKVDGGYTEDYWGQGTLVTVSSGGGGSGGGGSGGGGSQSVLTQPPSASGTPGQRVTISCSGSGSNIGSNDVSWYQQIPGTAPKLLIYWNDQRPSGVPDRFSGSKSGISASLAISGLRSEDEADYYCAAWDDSLNGYVFGTGTKVTVL"}, "B4": {"name": "BCMA-22 scFv (scFv)", "scFv": "EVQLVESGGGLVKPGGSLRLSCAASGFTFSDYYMSWIRQAPGKGLEWVSYISSSGSTIYYADSVKGRFTISRDNAKNSLYLQMNSLRAEDTAVYYCAKVDGDYTEDYWGQGTLVTVSSGGGGSGGGGSGGGGSQSALTQPASVSGSPGQSITISCTGSSSDVGKYNLVSWYQQPPGKAPKLIIYDVNKRPSGVSNRFSGSKSGNTATLTISGLQGDDEADYYCCSYGGSRSYVFGTGTKVTVL"}, "B5": {"name": "BCMA-30 scFv (scFv, V domains shown)", "VH": "QVQLVQSGGGLVQPGRSLRLSCAASGFTFGDYAMHWVRQAPGKGLEWVSGISWNSGSIGYADSVKGRFTISRDNAKNSLYLQMNSLRAEDTAVYYCARDLDPDDAFDIWGQGTMVTVSS"}, "B6": {"name": "BCMA-13 scFv (scFv)", "scFv": "QMQLVQYGGGVVQPGRSLRLSCAASGFTFSSYAMHWVRQAPGKGLEWVAVISYDGSNKYYADSVKGRFTISRDNSKNTLYLQMNSLKAEDTAVYYCATLPGRDGYPGAFDYRGQGTLVTVSSGGGGSGGGGSGGGGSQAVLTQPPSASGTPGQRVTISCSGSGSNIGSNDVSWYQQIPGTAPKLLIYWNDQRPSGVPDRFSASKSGTSASLAISGLRSEDEADYYCAAWDDSLGGSWVFGGGTKVTVL"}}, "key": {"[1]": {"target": "human BCMA (B-cell maturation antigen) expressed on cells (human) (UniProt Q02223)", "assay": "flow cytometry, hBCMA-expressing HEK293 cells against parental HEK293 cells"}, "[2]": {"target": "T1, human BCMA (B-cell maturation antigen) expressed on cells (human, UniProt Q02223 1-184)", "T1 construct": "whole, on cells; also called hBCMA; hBCMA/HEK293 cell line", "T1 sequence (looked up)": "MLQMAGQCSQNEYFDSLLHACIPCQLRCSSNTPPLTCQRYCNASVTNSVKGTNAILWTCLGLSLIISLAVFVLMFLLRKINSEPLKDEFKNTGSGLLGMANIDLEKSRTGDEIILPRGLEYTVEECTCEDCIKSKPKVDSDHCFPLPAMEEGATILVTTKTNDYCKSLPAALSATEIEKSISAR", "assay": "flow cytometry, hBCMA-overexpressing HEK293 compared with OPM2 and RPMI-8226 cells"}, "[3]": {"target": "T1, human BCMA (B-cell maturation antigen) …", "assay": "flow cytometry on hBCMA-expressing HEK293 cells"}}}
{"binder": "B1", "values": [{"measurement": "fold selective binding (hBCMA-expressing HEK293 over parental HEK293)", "setting": "[1]", "result": 2.2, "unit": "fold"}]}
{"binder": "B2", "values": [{"measurement": "fold selective binding (hBCMA-expressing HEK293 over parental HEK293)", "setting": "[1]", "result": 10.8, "unit": "fold"}]}
{"binder": "B3", "values": [{"measurement": "fold selective binding (hBCMA-expressing HEK293 over parental HEK293)", "setting": "[1]", "result": 3.4, "unit": "fold"}]}
{"binder": "B4", "values": [{"measurement": "fold selective binding (hBCMA-expressing HEK293 over parental HEK293)", "setting": "[1]", "result": 7.5, "unit": "fold"}]}
{"binder": "B5", "values": [{"measurement": "binding result", "setting": "[2]", "result": "binds"}]}
{"binder": "B6", "values": [{"measurement": "binding result", "setting": "[3]", "result": "no binding"}]}
